Patent US20030235534A1, “Methods and compositions for radioimmunotherapy of brain and CNS tumors” (priority 2002, published 2003)
*1 amine or outer side, *2 acyl side, *3 side chain or, on linkers, in order; H or OH if unused. Where a SMILES comes first, the peptide text is derived from it. Side-chain parts run from the residue outwards. [ ]: non-standard residue; d: D form. The star is where a group is joined. DOTA = O=C(O)CN1CCN(CC(=O)O)CCN(CC(=O)*)CCN(CC(=O)O)CC1; NH(2-(imidazol-4-yl)ethyl) = c1ncc(CCN*)[nH]1; Suc = O=C(CCC(=O)[*:2])[*:1]

Legend:
glioblastome multiforme = test: Treatment of a brain cancer patient with premixed bispecific antibody-mediated radioimmunotherapy using a beta-emitting radionuclide; settings: 1:1 molar mixture with bispecific antibody of Example 1; 12 mCi Y-90, 10 mg antibody, into reservoir, 4 days post surgery
Experimental: A patient with recently-diagnosed glioblastome multiforme in their left hemisphere, which is limited to a focal lesion, undergoes a gross total resection, with placement of a Rickham reservoir and catheter into the surgically-created resection cavity. Placement of the catheter is confirmed by an MRI scan 24 h later. […] The reservoir and catheter are flushed after the antibody injection.

[1] = test system: inoperable brain tumor in the pons; test: Treatment of a brain cancer patient with pretargeted bispecific antibody-mediated radioimmunotherapy using an alpha-emitting radionuclide (intravenous)
Experimental: This preparation has an In-111 label to confirm targeting to the brain tumor by gamma camera imaging 24 h later. After two more days, to allow for adequate localization of the bispecific antibody to the tumor and clearance from the body, the Ac-225-IMP 241 of example 7, above, is also injected intravenously, at a dose of 1 mCi.

glioblastoma multiforme = test: Treatment of a brain cancer patient with pretargeted bispecific antibody-mediated radioimmunotherapy using an alpha-emitting radionuclide (hapten into surgical cavity)
[2] = 1 mCi i.v. after 30 mg i.v. humanized anti-tenascin x anti-HSG bispecific antibody, 8 weeks later

Q: How did the “tolerability of radioimmunotherapy procedure” value (glioblastome multiforme) turn out when `NC(=O)[C@H](CCCCNC(=O)CNC(=O)CCC(=O)NCCc1cnc[nH]1)NC(=O)[C@@H](Cc1ccc(O)cc1)NC(=O)[C@H](CCCCNC(=O)CNC(=O)CCC(=O)NCCc1cnc[nH]1)NC(=O)[C@H](Cc1ccccc1)NC(=O)CN1CCN(CC(=O)O)CCN(CC(=O)O)CCN(CC(=O)O)CC1` (90Y complex, metal not drawn) [Y-90-IMP 241] ({DOTA}-FK([Gly-Suc-NH(2-(imidazol-4-yl)ethyl)])[dY]K([Gly-Suc-NH(2-(imidazol-4-yl)ethyl)])-NH2) was run?
A: Its value is “tolerates the radioimmunotherapy procedure well”.

Q: With `NC(=O)[C@H](CCCCNC(=O)CNC(=O)CCC(=O)NCCc1cnc[nH]1)NC(=O)[C@@H](Cc1ccc(O)cc1)NC(=O)[C@H](CCCCNC(=O)CNC(=O)CCC(=O)NCCc1cnc[nH]1)NC(=O)[C@H](Cc1ccccc1)NC(=O)CN1CCN(CC(=O)O)CCN(CC(=O)O)CCN(CC(=O)O)CC1` [Ac-225-IMP 241, metal not drawn] ({DOTA}-FK([Gly-Suc-NH(2-(imidazol-4-yl)ethyl)])[dY]K([Gly-Suc-NH(2-(imidazol-4-yl)ethyl)])-NH2) as the molecule, how does the “granulocytes (ANC) and platelets” value [1, 2] read?
A: Its value is “within the normal range”.

Q: And the hematological toxicity [1, 2]?
A: The hematological toxicity was “no evidence of hematological toxicity”.

Q: What about the “adverse events from therapy” value (glioblastoma multiforme; 1 mCi into surgical cavity two days after 30 mg i.v. humanized anti-tenascin x anti-HSG bispecific antibody) of the same molecule?
A: The value was “does not experience any adverse events”.

Q: `Cn1nnc2c(C(N)=O)ncn2c1=O` [temozolomide, reference compound] was tested. Which “additional reduction of the tumor” value ([1]; temozolomide therapy given three months after the 3-month follow-up of radioimmunotherapy) did it give?
A: The value was 25%.

Q: What about the “tolerability of chemotherapy regimen” value (glioblastoma multiforme; given after radioimmunotherapy) of the same molecule?
A: The value was “tolerated well”.
